According to patent publication US20230323466A1, “DETERMINING CANCER RESPONSIVENESS TO TREATMENT” (Queensland University of Technology, priority 2020, published 2023):

Test system: EGFR
Assay: EGF stimulation of EGFR wildtype cells, western blot of CDCA3 (FIG. 11)
Format: cell-based
Settings: EGFR wildtype cells stimulated with EGF
Description: FIG. 11. CDCA3 levels are elevated in EGFR^mutNSCLC cell lines. Stimulation of receptor tyrosine kinase (RTK) signalling in EGFR wildtype cells induces the upregulation of CDCA3 protein.
The current Example examined whether elevated CDCA3 was as a result of activating mutations in epidermal growth factor receptor (EGFR) that solely occur in cases of NSCLC adenocarcinoma. In in vitro models of disease, CDCA3 protein levels were examined by western blot analysis and it was identified that CDCA3 protein is markedly elevated in EGFR mutant NSCLC cell lines versus EGFR wildtype cell lines (FIG. 11). The present inventors also identified that stimulation of EGFR wildtype cells with EGF, an EGFR ligand, induced PI3K-Akt downstream signal transduction and the upregulation of CDCA3 protein. PI3K-Akt was constitutively activated in EGFR mutant NSCLC cell lines.

B1: EGF: an EGFR ligand (protein, UniProt P01133 23-1207, looked up)
Pro-epidermal growth factor: PQHWSCPEGTLAGNGNSTCVGPAPFLIFSHGNSIFRIDTEGTNYEQLVVDAGVSVIMDFHYNEKRIYWVDLERQLLQRVFLNGSRQERVCNIEKNVSGMAINWINEEVIWSNQQEGIITVTDMKGNNSHILLSALKYPANVAVDPVERFIFWSSEVAGSLYRADLDGVGVKALLETSEKITAVSLDVLDKRLFWIQYNREGSNSLICSCDYDGGSVHISKHPTQHNLFAMSLFGDRIFYSTWKMKTIWIANKHTGKDMVRINLHSSFVPLGELKVVHPLAQPKAEDDTWEPEQKLCKLRKGNCSSTVCGQDLQSHLCMCAEGYALSRDRKYCEDVNECAFWNHGCTLGCKNTPGSYYCTCPVGFVLLPDGKRCHQLVSCPRNVSECSHDCVLTSEGPLCFCPEGSVLERDGKTCSGCSSPDNGGCSQLCVPLSPVSWECDCFPGYDLQLDEKSCAASGPQPFLLFANSQDIRHMHFDGTDYGTLLSQQMGMVYALDHDPVENKIYFAHTALKWIERANMDGSQRERLIEEGVDVPEGLAVDWIGRRFYWTDRGKSLIGRSDLNGKRSKIITKENISQPRGIAVHPMAKRLFWTDTGINPRIESSSLQGLGRLVIASSDLIWPSGITIDFLTDKLYWCDAKQSVIEMANLDGSKRRRLTQNDVGHPFAVAVFEDYVWFSDWAMPSVMRVNKRTGKDRVRLQGSMLKPSSLVVVHPLAKPGADPCLYQNGGCEHICKKRLGTAWCSCREGFMKASDGKTCLALDGHQLLAGGEVDLKNQVTPLDILSKTRVSEDNITESQHMLVAEIMVSDQDDCAPVGCSMYARCISEGEDATCQCLKGFAGDGKLCSDIDECEMGVPVCPPASSKCINTEGGYVCRCSEGYQGDGIHCLDIDECQLGEHSCGENASCTNTEGGYTCMCAGRLSEPGLICPDSTPPPHLREDDHHYSVRNSDSECPLSHDGYCLHDGVCMYIEALDKYACNCVVGYIGERCQYRDLKWWELRHAGHGQQQKVIVVAVCVVVLVMLLLLSLWGAHYYRTQKLLSKNPKNPYEESSRDVRSRRPADTEDGMSSCPQPWFVVIKEHQDLKNGGQPVAGEDGQAADGSMQPTSWRQEPQLCGMGTEQGCWIPVSSDKGSCPQVMERSFHMPSYGTQTLEGGVEKPHSLLSANPLWQQRALDPPHQMELTQ
modifications: Pro-epidermal growth factor
notes: an EGFR ligand
CDCA3 protein: upregulation
